Source: patent US20240132578A1

Columns and labels:
Assay in all cases: cell-based or functional assay
[1] = molecular target: HIV-1 Env of isolate MGRM-F1-012 (HIV-1)
[2] = molecular target: HIV-1 Env of isolate MGRM-AE-004 (subtype AE) (HIV-1)
[3] = molecular target: HIV-1 Env of isolate JRFL (HIV-1)
[4] = molecular target: HIV-1 JR-CSF Env L416A (HIV-1 (isolate JR-CSF)) (UniProt P20871)
[5] = molecular target: HIV-1 JR-CSF Env P313A (HIV-1 (isolate JR-CSF, clade B)) (UniProt P20871)
[6] = molecular target: HIV-1 JR-CSF Env R419A (HIV-1 (isolate JR-CSF)) (UniProt P20871)
[7] = molecular target: HIV-1 Env of isolate MGRM-C-001 (HIV-1)
[8] = molecular target: HIV-1 Env of pseudovirus isolate MGRM-C-024 (clade C) (HIV-1)
[9] = molecular target: HIV-1 Env of isolate 92WR026 (pseudovirus) (HIV-1)
[10] = molecular target: HIV-1 Env of pseudovirus isolate MGRM-C-008 (clade C) (HIV-1)
[11] = molecular target: HIV-1 JR-CSF Env T394A (HIV-1 (isolate JR-CSF)) (UniProt P20871)
[12] = molecular target: HIV-1 Env of isolate MGRM-F1-014 (HIV-1)
[13] = molecular target: HIV-1 Env of pseudovirus isolate MGRM-C-017 (clade C) (HIV-1)
HIV-1 JRCSF Env (HIV-1) = HIV-1 JRCSF Env (HIV-1) (UniProt P20871)
[14] = molecular target: HIV-1 92BR020 Env (HIV-1)
[15] = molecular target: HIV-1 JR-CSF Env T413A (HIV-1 (isolate JR-CSF)) (UniProt P20871)
[16] = molecular target: HIV-1 Env of pseudovirus isolate MGRM-C-022 (clade C) (HIV-1)
[17] = molecular target: HIV-1 Env of isolate MGRM-A-002 (pseudovirus) (HIV-1)
HIV-1 NL43 Env (HIV-1) = molecular target: HIV-1 NL43 Env (HIV-1)
[18] = molecular target: HIV-1 Env of isolate MGRM-D-018 (pseudovirus) (HIV-1)
HIV-1 APV6 Env (HIV-1) = molecular target: HIV-1 APV6 Env (HIV-1)
[19] = molecular target: HIV-1 Env of pseudovirus MGRM-F1-010 (HIV-1)
[20] = molecular target: HIV-1 envelope glycoprotein (Env) of isolate MG RM-AG-012 (HIV-1)
[21] = molecular target: HIV-1 envelope glycoprotein (Env) of isolate 93UG077, subtype A (HIV-1)
[22] = molecular target: HIV-1 envelope glycoprotein (Env) of isolate MG RM-A-013, subtype A (HIV-1)
[23] = molecular target: HIV-1 Env of isolate MGRM-F1-023 (pseudovirus) (HIV-1)
[24] = molecular target: HIV-1 Env of isolate MGRM-F1-020 (pseudovirus) (HIV-1)
[25] = molecular target: HIV-1 envelope glycoprotein (Env) of isolate CAAN.A2, on pseudovirus (HIV-1)
[26] = molecular target: HIV-1 envelope glycoprotein (Env) of isolate CMU02, subtype AE (HIV-1)
[27] = molecular target: HIV-1 envelope glycoprotein (Env) of isolate MG RM-A-008, subtype A (HIV-1)
[28] = molecular target: HIV-1 envelope glycoprotein (Env) of isolate MGRM-Chronic-B-024, on pseudovirus (HIV-1)
[29] = molecular target: HIV-1 Env of isolate MGRM-AG-003 (pseudovirus) (HIV-1)

## 5147_N06 (PGT-130) (antibody)
[1]
  IC50 (µg/mL), pseudovirus neutralization: > 50 µg/mL
[2]
  IC50, pseudovirus neutralization: 2.43 µg/mL
[3]
  IC50 (µg/mL), pseudovirus neutralization: 0.046 µg/mL
[4]
  Fold IC50 increase relative to wild-type (pseudovirus neutralization): 1 fold
[5]
  Fold IC50 increase relative to wild-type: 0.3 fold
[6]
  Fold IC50 increase relative to wild-type (pseudovirus neutralization): 2.6 fold
[7]
  IC50 (µg/mL), pseudovirus neutralization: > 50 µg/mL
[8]
  IC50, pseudovirus neutralization: > 50 µg/mL
[9]
  IC50 (µg/mL), pseudovirus neutralization: 0.037 µg/mL
[10]
  IC50, pseudovirus neutralization: 7.28 µg/mL
[11]
  Fold IC50 increase relative to wild-type (pseudovirus neutralization): 1.2 fold
[12]
  IC50 (µg/mL), pseudovirus neutralization: 11.8 µg/mL
[13]
  IC50, pseudovirus neutralization: > 50 µg/mL
HIV-1 JRCSF Env (HIV-1)
  IC50, pseudovirus neutralization: 0.0089 µg/mL
[14]
  IC50, pseudovirus neutralization: 1.12 µg/mL
[15]
  Fold IC50 increase relative to wild-type (pseudovirus neutralization): 0.6 fold
[16]
  IC50, pseudovirus neutralization: 0.127 µg/mL
[17]
  IC50 (µg/mL), pseudovirus neutralization: 0.01 µg/mL
HIV-1 NL43 Env (HIV-1)
  IC50, pseudovirus neutralization: > 10 µg/mL
[18]
  IC50 (µg/mL), pseudovirus neutralization: 0.049 µg/mL
HIV-1 APV6 Env (HIV-1)
  IC50, pseudovirus neutralization: > 10 µg/mL

## PGT-141 (4964_G22; 4993_K13) (antibody)
[19]
  IC50, pseudovirus neutralization: > 50 µg/mL
[20]
  IC50: > 50 µg/mL

## 5123_A06 (PGT-125) (antibody)
[21]
  IC50, pseudovirus neutralization: 0.012 µg/mL
[22]
  IC50, pseudovirus neutralization: 0.014 µg/mL
[4]
  Fold IC50 increase relative to wild-type (pseudovirus neutralization): 0.8 fold
[23]
  IC50 (µg/mL), pseudovirus neutralization: 0.12 µg/mL
[5]
  Fold IC50 increase relative to wild-type: 0.3 fold
[6]
  Fold IC50 increase relative to wild-type (pseudovirus neutralization): 1 fold
[11]
  Fold IC50 increase relative to wild-type (pseudovirus neutralization): 0.6 fold
[24]
  IC50 (µg/mL), pseudovirus neutralization: > 50 µg/mL
[25]
  IC50, pseudovirus neutralization: 5.47 µg/mL
HIV-1 JRCSF Env (HIV-1)
  IC50, pseudovirus neutralization: 0.006 µg/mL
[14]
  IC50, pseudovirus neutralization: 0.0214 µg/mL
[26]
  IC50, pseudovirus neutralization: > 50 µg/mL
[15]
  Fold IC50 increase relative to wild-type (pseudovirus neutralization): 0.5 fold
[27]
  IC50, pseudovirus neutralization: > 50 µg/mL
[28]
  IC50, pseudovirus neutralization: > 50 µg/mL
HIV-1 NL43 Env (HIV-1)
  IC50, pseudovirus neutralization: > 10 µg/mL
HIV-1 APV6 Env (HIV-1)
  IC50, pseudovirus neutralization: 0.0359 µg/mL
[29]
  IC50 (µg/mL), pseudovirus neutralization: > 50 µg/mL

## PGT-142 (4995_E20) (antibody)
[19]
  IC50, pseudovirus neutralization: > 50 µg/mL
[20]
  IC50: > 50 µg/mL

## 5141_B17 (PGT-126) (antibody)
[21]
  IC50, pseudovirus neutralization: 0.02 µg/mL
[22]
  IC50, pseudovirus neutralization: 0.006 µg/mL
[4]
  Fold IC50 increase relative to wild-type (pseudovirus neutralization): 0.8 fold
[23]
  IC50 (µg/mL), pseudovirus neutralization: 0.009 µg/mL
[5]
  Fold IC50 increase relative to wild-type: 0.4 fold
[6]
  Fold IC50 increase relative to wild-type (pseudovirus neutralization): 1.2 fold
[11]
  Fold IC50 increase relative to wild-type (pseudovirus neutralization): 0.6 fold
[24]
  IC50 (µg/mL), pseudovirus neutralization: > 50 µg/mL
[25]
  IC50, pseudovirus neutralization: 0.273 µg/mL
HIV-1 JRCSF Env (HIV-1)
  IC50, pseudovirus neutralization: 0.0061 µg/mL
[14]
  IC50, pseudovirus neutralization: 0.0163 µg/mL
[26]
  IC50, pseudovirus neutralization: > 50 µg/mL
[15]
  Fold IC50 increase relative to wild-type (pseudovirus neutralization): 0.7 fold
[27]
  IC50, pseudovirus neutralization: > 50 µg/mL
[28]
  IC50, pseudovirus neutralization: > 50 µg/mL
HIV-1 NL43 Env (HIV-1)
  IC50, pseudovirus neutralization: > 10 µg/mL
HIV-1 APV6 Env (HIV-1)
  IC50, pseudovirus neutralization: 0.0249 µg/mL
[29]
  IC50 (µg/mL), pseudovirus neutralization: > 50 µg/mL

## PGT-145 (4995_P16) (antibody)
[19]
  IC50, pseudovirus neutralization: 3.32 µg/mL
[20]
  IC50: > 50 µg/mL

## 5343_B08 (PGT-135) (antibody)
[1]
  IC50 (µg/mL), pseudovirus neutralization: 0.01 µg/mL
[2]
  IC50, pseudovirus neutralization: > 50 µg/mL
[3]
  IC50 (µg/mL), pseudovirus neutralization: > 50 µg/mL
[4]
  Fold IC50 increase relative to wild-type (pseudovirus neutralization): 1.2 fold
[6]
  Fold IC50 increase relative to wild-type (pseudovirus neutralization): 3.9 fold
[7]
  IC50 (µg/mL), pseudovirus neutralization: 10.1 µg/mL
[8]
  IC50, pseudovirus neutralization: > 50 µg/mL
[9]
  IC50 (µg/mL), pseudovirus neutralization: 0.068 µg/mL
[10]
  IC50, pseudovirus neutralization: > 50 µg/mL
[11]
  Fold IC50 increase relative to wild-type (pseudovirus neutralization): > 75 fold
[12]
  IC50 (µg/mL), pseudovirus neutralization: > 50 µg/mL
[13]
  IC50, pseudovirus neutralization: > 50 µg/mL
[14]
  IC50, pseudovirus neutralization: 0.104 µg/mL
[15]
  Fold IC50 increase relative to wild-type (pseudovirus neutralization): 0.3 fold
[16]
  IC50, pseudovirus neutralization: > 50 µg/mL
[17]
  IC50 (µg/mL), pseudovirus neutralization: > 50 µg/mL
[18]
  IC50 (µg/mL), pseudovirus neutralization: 0.039 µg/mL
